B1: SEC14L1 Nm (ssRNA)
RNA: ACUGAACGCCUUUAAGUCAGAAUCCCACCC
modifications: 2'-O-methyl at G4, G16, C18, A19, C24, C25, A27
B2: SNX5 Nm (ssRNA)
RNA: CGCUGAGUGCGCUGCACUGACCUUCUUCCA
modifications: 2'-O-methyl, multiple sites

Target: FUBP1-strep (UniProt Q96AE4 1-644)
Test: EMSA; EMSA: 10 mM Tris pH 7.5, 140 mM KCl, 10 mM NaCl, 1 mM MgCl2, 10% glycerol, 1 mM DTT, RNase inhibitor 1 U/ul, room temperature 30 min; probe 20 nM (Fig. 3A) or 10 nM (Fig. 5E, S5D). Pull-down: HepG2 lysate (50 mM Tris pH 7.5, 100 mM NaCl, 1% NP-40, 0.5% deoxycholate) + tRNA 50 ug/ml, RT 30 min then 4 C 90 min; washes 10 mM Tris pH 7.5, 150 mM KCl, 1.5 mM MgCl2, 0.1% NP-40, 0.5 mM DTT
Conditions: protein: recombinant; tags: C-terminal Strep-tag; label: 5' FAM

Chain of FUBP1-strep (Q96AE4 whole entry): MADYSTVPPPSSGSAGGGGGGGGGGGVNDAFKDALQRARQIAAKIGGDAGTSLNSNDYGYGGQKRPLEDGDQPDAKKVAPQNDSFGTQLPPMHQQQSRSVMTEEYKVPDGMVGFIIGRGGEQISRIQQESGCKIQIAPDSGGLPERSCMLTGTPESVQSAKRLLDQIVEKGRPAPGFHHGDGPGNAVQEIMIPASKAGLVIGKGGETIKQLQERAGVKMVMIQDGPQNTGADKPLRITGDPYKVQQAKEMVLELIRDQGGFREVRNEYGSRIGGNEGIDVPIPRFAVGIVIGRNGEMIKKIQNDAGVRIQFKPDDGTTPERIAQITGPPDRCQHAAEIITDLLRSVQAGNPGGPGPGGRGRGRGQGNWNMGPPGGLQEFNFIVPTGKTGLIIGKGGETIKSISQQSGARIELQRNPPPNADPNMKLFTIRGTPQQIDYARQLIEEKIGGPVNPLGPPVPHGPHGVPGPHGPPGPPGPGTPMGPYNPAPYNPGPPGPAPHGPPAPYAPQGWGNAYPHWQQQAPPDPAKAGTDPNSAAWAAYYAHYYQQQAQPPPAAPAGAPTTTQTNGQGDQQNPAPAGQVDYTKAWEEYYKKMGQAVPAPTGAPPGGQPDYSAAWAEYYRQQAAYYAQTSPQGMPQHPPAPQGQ

| Binder | binding result |
| --- | --- |
| B1 | binds |
| B2 | binds |

— publication PMC12533644, “Nuclear 2′-O-methylation regulates RNA splicing through its binding protein FUBP1”
